Experimental data taken from paper PMC12062965, “Transposable Elements Drive Regulatory and Functional Innovation of F-box Genes”.

What was measured:
GST-FBXA-215 FL = biological target: T1, GST-FBXA-215 FL (Caenorhabditis elegans, UniProt A0A8S4Q9N7 1-401); assay: EMSA; 50 mM Tris-HCl pH 7.5, 150 mM NaCl, 1 mM DTT, protease inhibitors, 2.5% glycerol, 77.3 nM DNA, 25 C 15 min; native 1.5% agarose gel in TBE at 4 C, SYBR Gold stain; conditions: protein: recombinant; tags: N-terminal GST; blunt
T1 sequence: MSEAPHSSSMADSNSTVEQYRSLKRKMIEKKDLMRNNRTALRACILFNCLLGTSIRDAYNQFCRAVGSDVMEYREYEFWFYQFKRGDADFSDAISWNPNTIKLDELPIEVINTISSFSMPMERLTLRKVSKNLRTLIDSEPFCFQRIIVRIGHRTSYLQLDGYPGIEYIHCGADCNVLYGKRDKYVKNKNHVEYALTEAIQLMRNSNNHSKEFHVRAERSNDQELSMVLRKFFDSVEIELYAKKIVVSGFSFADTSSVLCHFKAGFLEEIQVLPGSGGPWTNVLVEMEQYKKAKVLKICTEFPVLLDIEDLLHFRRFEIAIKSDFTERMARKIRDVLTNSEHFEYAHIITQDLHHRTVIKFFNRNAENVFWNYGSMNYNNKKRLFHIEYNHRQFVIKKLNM

GST-FBXA-192 FL = biological target: T2, GST-FBXA-192 FL (Caenorhabditis elegans, UniProt Q9XUX2 1-401); assay: as above; conditions: protein: recombinant; tags: N-terminal GST; blunt
T2 sequence: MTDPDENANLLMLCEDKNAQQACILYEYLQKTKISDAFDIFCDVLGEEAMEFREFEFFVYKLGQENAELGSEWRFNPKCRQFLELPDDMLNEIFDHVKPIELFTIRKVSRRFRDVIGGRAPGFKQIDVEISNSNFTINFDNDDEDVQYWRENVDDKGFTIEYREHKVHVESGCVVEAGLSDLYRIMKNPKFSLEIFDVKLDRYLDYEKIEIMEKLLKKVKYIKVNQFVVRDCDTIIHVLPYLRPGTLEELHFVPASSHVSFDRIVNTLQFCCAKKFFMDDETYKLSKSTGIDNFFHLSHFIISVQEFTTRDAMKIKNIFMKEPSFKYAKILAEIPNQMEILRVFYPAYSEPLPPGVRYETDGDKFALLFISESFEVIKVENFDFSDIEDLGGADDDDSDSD

B1: Mos1 right TIR (IRR100) (dsDNA)
DNA 1: TTTCTTTTTCCACAAAATTTAACGTGTTTTTTGATTTAAAAAAAACGACATTTCATACTTGTACACCTGA
DNA 2: TCAGGTGTACAAGTATGAAATGTCGTTTTTTTTAAATCAAAAAACACGTTAAATTTTGTGGAAAAAGAAA
binding result (GST-FBXA-215 FL): no binding | binding result (GST-FBXA-192 FL): no binding
